Test results taken from publication PMC3777911 (PLoS ONE, 2013).

What was measured:
[1] = target: T1, HA-Sec13/His-Sec31A complex (outer COPII coat), wild type ( | human, UniProt P55735 1-322; O94979 1-1220); test: pull-down; His-tagged Sec31A (Sec13/Sec31A) immobilised on Nickel beads, recombinant ALG-2 versions added, in the presence of Ca2+; eluates on SDS-PAGE, SyproRed; ratios from fluorescence intensity; conditions: both partners purified
T1 construct: Sec13, mammalian COPII outer coat protein; human Sec31A; also called Sec13/31A; Sec13/Sec31A (wt); source: co-expressed in ES-SF9 cells (Bac-to-Bac baculovirus), purified (Ni-NTA)

His-Sec31A = target: T2, His-Sec31A (human, UniProt O94979 1-1220); test: co-purification (Ni-NTA affinity chromatography); the two chains co-expressed in ES-SF9 cells; complex purified on Ni-NTA through the His tag of Sec31A or Sec24; purified Sec13/Sec31A collected again on Ni beads, SyproRed; conditions: partners not purified
T2 construct: human Sec31A; also called wt Sec31A; source: co-expressed with HA-Sec13 in ES-SF9 cells (Bac-to-Bac baculovirus)
T2 sequence (looked up): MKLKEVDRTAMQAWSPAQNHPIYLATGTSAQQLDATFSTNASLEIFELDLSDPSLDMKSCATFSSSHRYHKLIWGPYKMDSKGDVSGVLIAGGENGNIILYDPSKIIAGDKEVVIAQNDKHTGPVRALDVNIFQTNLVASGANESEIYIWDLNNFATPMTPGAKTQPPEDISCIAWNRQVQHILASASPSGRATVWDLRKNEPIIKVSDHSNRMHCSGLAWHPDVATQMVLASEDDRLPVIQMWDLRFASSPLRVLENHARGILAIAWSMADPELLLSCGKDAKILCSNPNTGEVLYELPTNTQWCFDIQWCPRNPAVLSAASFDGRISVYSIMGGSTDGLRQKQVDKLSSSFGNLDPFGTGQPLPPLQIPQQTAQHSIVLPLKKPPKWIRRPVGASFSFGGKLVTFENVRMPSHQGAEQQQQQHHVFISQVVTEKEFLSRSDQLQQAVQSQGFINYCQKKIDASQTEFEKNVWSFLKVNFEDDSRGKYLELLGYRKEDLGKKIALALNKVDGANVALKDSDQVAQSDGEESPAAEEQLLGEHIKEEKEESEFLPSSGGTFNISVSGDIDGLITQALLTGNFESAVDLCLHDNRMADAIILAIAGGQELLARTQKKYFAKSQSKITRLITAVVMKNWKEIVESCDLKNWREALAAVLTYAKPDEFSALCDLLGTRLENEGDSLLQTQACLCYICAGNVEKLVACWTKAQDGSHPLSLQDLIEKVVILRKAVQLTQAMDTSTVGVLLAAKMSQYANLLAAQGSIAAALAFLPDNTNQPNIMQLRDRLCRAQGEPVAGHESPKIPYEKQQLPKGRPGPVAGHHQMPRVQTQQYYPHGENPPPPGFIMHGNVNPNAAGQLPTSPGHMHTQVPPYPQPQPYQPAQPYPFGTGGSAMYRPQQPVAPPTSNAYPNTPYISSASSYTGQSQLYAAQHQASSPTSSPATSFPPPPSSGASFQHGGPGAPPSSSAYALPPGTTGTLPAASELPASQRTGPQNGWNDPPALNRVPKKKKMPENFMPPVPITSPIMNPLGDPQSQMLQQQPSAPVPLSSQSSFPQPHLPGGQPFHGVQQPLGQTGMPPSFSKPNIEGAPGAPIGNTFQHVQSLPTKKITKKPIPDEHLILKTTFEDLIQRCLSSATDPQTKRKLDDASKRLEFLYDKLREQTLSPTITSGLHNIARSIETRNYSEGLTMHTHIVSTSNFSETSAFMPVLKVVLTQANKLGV

B1: ALG-2 (product of the apoptosis linked gene-2), recombinant wild type (natural protein, UniProt P12815 1-191, looked up)
chain: MAAYSYRPGPGGGPGPAAGAALPDQSFLWNVFQRVDKDRSGVISDNELQQALSNGTWTPFNPVTVRSIISMFDRENKAGVNFSEFTGVWKYITDWQNVFRTYDRDNSGMIDKNELKQALSGFGYRLSDQFHDILIRKFDRQGRGQIAFDDFIQGCIVLQRLTDIFRRYDTDQDGWIQVSYEQYLSMVFSIV
notes: also called wt ALG-2; rALG-2; source: recombinant, purified as previously described [16]
For B1, the “stoichiometry N” value [1] was ~2 ALG-2 per Sec31A (molar ratio).

B2: HA-Sec13 (natural protein, UniProt P55735 1-322, looked up)
chain: MVSVINTVDTSHEDMIHDAQMDYYGTRLATCSSDRSVKIFDVRNGGQILIADLRGHEGPVWQVAWAHPMYGNILASCSYDRKVIIWREENGTWEKSHEHAGHDSSVNSVCWAPHDYGLILACGSSDGAISLLTYTGEGQWEVKKINNAHTIGCNAVSWAPAVVPGSLIDHPSGQKPNYIKRFASGGCDNLIKLWKEEEDGQWKEEQKLEAHSDWVRDVAWAPSIGLPTSTIASCSQDGRVFIWTCDDASSNTWSPKLLHKFNDVVWHVSWSITANILAVSGGDNKVTLWKESVDGQWVCISDVNKGQGSVSASVTEGQQNEQ
notes: Sec13, mammalian COPII outer coat protein; source: co-expressed with His-Sec31A or His-Sec31ADelABD in ES-SF9 cells (Bac-to-Bac baculovirus)
In the case of B2, the “stoichiometry N” value (His-Sec31A) is reported as ~1 Sec13 per Sec31A (molar ratio).
